Results taken from patent US20060052296A1 (TEMPLE UNIVERSITY OF THE COMMONWEALTH SYSTEM OF HIGHER …, published 2006).

Assays:
GST alone [1] = molecular target: T1, GST alone (UniProt P08515 1-218 = GST); experiment: GST pull-down from NIH 3T3 cell extract, Western blot with anti-agnoprotein antibody
[2] = molecular target: p53 in NIH 3T3 cell protein extract (mouse (endogenous in mouse fibroblast …, UniProt P02340 1-390)); experiment: co-immunoprecipitation with anti-p53 antibody pAb 421, Western blot with rabbit anti-Agno
Sequence of p53 in NIH 3T3 cell protein extract (mouse (P02340 whole entry): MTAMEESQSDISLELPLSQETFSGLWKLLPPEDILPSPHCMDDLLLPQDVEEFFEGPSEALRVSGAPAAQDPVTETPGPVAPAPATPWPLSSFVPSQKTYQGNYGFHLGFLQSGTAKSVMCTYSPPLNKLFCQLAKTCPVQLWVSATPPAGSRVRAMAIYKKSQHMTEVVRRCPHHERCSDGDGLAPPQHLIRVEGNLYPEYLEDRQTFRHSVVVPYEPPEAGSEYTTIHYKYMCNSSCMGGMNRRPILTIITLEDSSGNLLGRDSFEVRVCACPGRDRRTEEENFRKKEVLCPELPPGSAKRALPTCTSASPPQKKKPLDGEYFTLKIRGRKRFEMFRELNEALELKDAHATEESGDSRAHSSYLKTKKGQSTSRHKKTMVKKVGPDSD

GST alone [3] = molecular target: T1, GST alone; experiment: GST pull-down, autoradiography

T1 sequence (P08515 whole entry): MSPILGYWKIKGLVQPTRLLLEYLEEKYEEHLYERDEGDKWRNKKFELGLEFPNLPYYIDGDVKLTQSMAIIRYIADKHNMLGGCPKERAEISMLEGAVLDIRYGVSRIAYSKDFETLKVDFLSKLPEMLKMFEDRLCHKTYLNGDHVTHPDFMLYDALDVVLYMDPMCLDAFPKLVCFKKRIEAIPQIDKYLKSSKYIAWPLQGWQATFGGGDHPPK

B1: YFP-agnoprotein (other)
chain: MVLRQLSRKASVKVSKTWSGTKKRAQRILIFLLEFLLDFCTGEDSVDGKKRQRHSGLTEQTYSALPEPKAT
notes: also called GFP-Agnoprotein; fusion agnoprotein
binding result (GST alone [1]): no binding
binding result [2]: binds

B2: in vitro synthesized [35S]-labeled agnoprotein (other)
chain: B1 chain
notes: also called in vitro translated [35S]-labeled agnoprotein
binding result (GST alone [3]): no binding
